{"source": "paper PMC5583172", "about": "(2017)", "key": {"[1]": {"biological_target": "mu opioid receptor (MOR) of wild type mouse brain (mouse (endogenous in brain), UniProt P42866 1-398)", "sequence (P42866 whole entry)": "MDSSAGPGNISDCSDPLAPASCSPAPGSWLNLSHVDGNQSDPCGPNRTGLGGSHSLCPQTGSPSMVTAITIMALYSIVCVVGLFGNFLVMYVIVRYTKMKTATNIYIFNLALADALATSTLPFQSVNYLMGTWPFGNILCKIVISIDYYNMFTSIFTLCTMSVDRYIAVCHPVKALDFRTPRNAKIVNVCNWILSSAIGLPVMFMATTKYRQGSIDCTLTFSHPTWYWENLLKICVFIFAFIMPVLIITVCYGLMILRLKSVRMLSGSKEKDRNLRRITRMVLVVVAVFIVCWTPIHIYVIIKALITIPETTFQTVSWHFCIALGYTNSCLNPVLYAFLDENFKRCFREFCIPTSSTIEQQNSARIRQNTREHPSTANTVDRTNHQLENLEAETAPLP"}, "[2]": {"biological_target": "human mu opioid receptor (MOR), stably expressed in HEK293 cells with GloSensor (human, UniProt P35372 1-400)", "sequence (P35372 whole entry)": "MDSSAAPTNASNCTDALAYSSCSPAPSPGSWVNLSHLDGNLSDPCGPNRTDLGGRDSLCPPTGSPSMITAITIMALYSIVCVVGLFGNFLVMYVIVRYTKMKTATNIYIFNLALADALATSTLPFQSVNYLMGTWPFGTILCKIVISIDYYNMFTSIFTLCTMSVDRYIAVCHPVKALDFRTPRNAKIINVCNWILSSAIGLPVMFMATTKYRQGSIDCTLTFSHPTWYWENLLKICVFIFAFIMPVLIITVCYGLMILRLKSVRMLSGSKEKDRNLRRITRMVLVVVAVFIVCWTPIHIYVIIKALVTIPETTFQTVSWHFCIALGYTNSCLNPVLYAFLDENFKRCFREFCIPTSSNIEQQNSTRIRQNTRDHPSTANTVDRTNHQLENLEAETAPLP"}}, "note": "Where no end group is shown, it is not given here. [ ]: non-standard residue; d: D form. The star is where a group is joined. NMeF = CN[C@@H](Cc1ccccc1)C(=O)O; NHCH2CH2OH = OCCN*", "data": [{"binder": "Y[dA]G[NMeF][NHCH2CH2OH]", "note": "[DAMGO ([D-Ala2, N-MePhe4, Gly-ol]-enkephalin)]", "values": [{"measurement": "Ki", "setting": "[1]", "result": 3.1, "unit": "nM"}, {"measurement": "Ki", "setting": "[2]", "result": 9.6, "unit": "nM"}]}]}
